Test results reported in publication PMC5589592, “Direct inhibition of STAT signaling by platinum drugs contributes to their anti-cancer activity” (Oncotarget, 2017).
Square brackets hold non-standard residues; d marks the D form. Ends that are not written are not given here. pY = N[C@@H](Cc1ccc(OP(=O)(O)O)cc1)C(=O)O

Molecular target: T1, recombinant human STAT3, full-length, biotinylated through an N-terminal avi-tag (human, UniProt P40763 1-770, biotin on the avi-tag)
T1 construct: also called biotinylated STAT; full-length protein; not shown: avi-tag, N-terminal, kept
Experiment: AlphaScreen or HTRF; biotinylated STAT incubated 90 min with (or without) a platinum compound and FITC-pTyr peptide, then streptavidin-coated donor beads and anti-FITC acceptor beads; detection at 570 nm; cisplatin 1, 3, 10 or 30 uM inhibited the signal
Conditions: both partners purified

T1 sequence (P40763 whole entry): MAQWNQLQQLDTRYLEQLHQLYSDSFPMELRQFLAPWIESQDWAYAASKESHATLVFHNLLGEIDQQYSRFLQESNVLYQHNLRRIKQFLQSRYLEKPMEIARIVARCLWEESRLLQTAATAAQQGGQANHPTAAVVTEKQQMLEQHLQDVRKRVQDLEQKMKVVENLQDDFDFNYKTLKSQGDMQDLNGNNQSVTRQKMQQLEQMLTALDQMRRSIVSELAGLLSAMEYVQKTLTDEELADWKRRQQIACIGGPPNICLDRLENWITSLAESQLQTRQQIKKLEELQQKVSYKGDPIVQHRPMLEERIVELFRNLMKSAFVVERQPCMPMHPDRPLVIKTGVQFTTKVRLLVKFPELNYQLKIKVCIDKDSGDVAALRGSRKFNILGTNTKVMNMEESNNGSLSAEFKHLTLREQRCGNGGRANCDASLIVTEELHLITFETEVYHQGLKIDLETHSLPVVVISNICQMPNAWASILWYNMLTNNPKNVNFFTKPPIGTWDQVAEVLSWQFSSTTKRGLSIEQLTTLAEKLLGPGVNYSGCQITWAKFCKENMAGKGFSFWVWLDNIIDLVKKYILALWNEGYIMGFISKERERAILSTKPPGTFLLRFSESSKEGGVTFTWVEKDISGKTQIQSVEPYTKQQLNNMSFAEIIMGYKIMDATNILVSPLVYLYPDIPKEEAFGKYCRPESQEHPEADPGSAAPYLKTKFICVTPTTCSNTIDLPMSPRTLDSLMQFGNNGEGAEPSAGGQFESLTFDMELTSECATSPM

B1: 5-carboxyfluorescein (FITC)-GpYLPQTV phospho-tyrosine peptide probe (STAT3) (peptide)
peptide: G[pY]LPQTV
modifications: not fully specified (N-terminus)
notes: pTyr peptide that corresponds with a STAT docking site of the upstream receptor; also called FITC-pTyr peptide; pTyr
Does B1 bind?
Result: binds
